Laboratory results taken from US20140242093A1, “METHODS AND COMPOSITIONS FOR MODULATING THE INNATE IMMUNE RESPONSE AND/OR MYOGENESIS IN A MAMMALIAN SUBJECT” (FRED HUTCHINSON CANCER RESEARCH CENTER, priority 2011, published 2014).

System: control human primary myoblasts
Assay: Expression microarray of primary myoblasts transduced with lentivirus carrying DUX4-fl, DUX4-s or GFP
Method: Primary human myoblasts were collected and cultured as previously described (Snider et al., 2010). Primary myoblasts were maintained at or below 70% confluency for proliferation. For differentiation, cells were allowed to reach 95-100% confluency in growth medium. Once confluency was reached, the cells were changed to differentiation medium (F10 media supplemented with 1% horse serum, 10 μg/mL insulin, and 10 μg/mL transferrin, penicillin/streptomycin) and maintained for 4 days. Human RD cells were grown in DMEM in 10% bovine calf serum (Hyclone) and penicillin/streptomycin. The primary myoblasts were transduced with lentivirus carrying DUX-fl, DUX4- or GFP (MOI=15).
Expression microarrays were performed on the transduced cells at 24 hours after transduction as follows. […] Samples were analyzed by Illumina Human Whole Genome microarrays. Probe intensities were corrected, normalized, and summarized by the Lumi package of Bioconductor (Du et al., 2008). Differentially expressed genes were identified by the LIMMA package of Bioconductor (Wettenhall and Smyth, 2004). Gene set enrichment analysis (GSEA) was performed using the Bioconductor GOstats package (Falcon and Gentleman, 2007).

B1: DUX4-s: short splice form of DUX4 (SEQ ID NO:112), keeps the double-homeobox domains, lacks the C-terminal activation domain (protein, listed as Homo sapiens)
chain: MALPTPSDSTLPAEARGRGRRRRLVWTPSQSEALRACFERNPYPGIATRERLAQAIGIPEPRVQIWFQNERSRQLRQHRRESRPWPGRRGPPEGRRKRTAVTGSQTALLLRAFEKDRFPGIAAREELARETGLPESRIQIWFQNRRARHPGQGGRAPAQV
Refseq NM_007283.5
  fc of MGLL (expression array): −0.003305
Refseq NM_007315.2, cultured human skeletal muscle
  STAT1 expression fc: 0.8235
Refseq NM_009587.2
  fc of LGALS9 (expression array): 1.706
Refseq NM_012083.2
  FRAT2 expression fc: −0.05118
Refseq NM_012121.4
  fc of CDC42EP4 (expression array): 0.06633
Refseq NM_012124.1
  CHORDC1 expression fc: 0.1261
Refseq NM_012130.2
  CLDN14 expression fc: −0.3006
Refseq NM_012143.2
  TFIP11 expression fc: 0.1124
Refseq NM_012238.3
  SIRT1 expression fc: 0.2071
Refseq NM_012285.1
  KCNH4 expression fc: −0.07365
Refseq NM_012342.2
  BAMBI expression fc: 0.1101
Refseq NM_012461.1
  fc of TINF2 (expression array): 0.3861
Refseq NM_013230.2
  CD24 expression fc: −0.3586
Refseq NM_013249.1
  ZNF214 expression fc: 0.166
Refseq NM_013254.2
  TBK1 fc: 0.3572
Refseq NM_013262.3
  MYLIP expression fc: −0.2969
Refseq NM_013293.3
  TRA2A expression fc: −0.1095
Refseq NM_013302.3
  fc of EEF2K (expression array): −0.5322
Refseq NM_013376.3
  SERTAD1 expression fc: 0.41
Refseq NM_013386.3
  fc of SLC25A24 (expression array): 1.103
Refseq NM_013943.1
  fc of CLIC4 (expression array): 1.228
Refseq NM_014038.1
  BZW2 expression fc: −0.4003
Refseq NM_014045.3
  LRP10 fc: 0.4158
Refseq NM_014138.3
  fc of FAM156A (expression array): −0.1365
Refseq NM_014140.2
  SMARCAL1 fc: 0.01669
Refseq NM_014167.2
  CCDC59 expression fc: 0.2509
Refseq NM_014290.1
  fc of TDRD7 (expression array): 1.072
Refseq NM_014314.3, cultured human skeletal muscle
  DDX58 expression fc: 0.02114
Refseq NM_014317.3
  PDSS1 expression fc: −0.07459
Refseq NM_014324.4
  AMACR expression fc: 0.08431
Refseq NM_014330.2
  PPP1R15A expression fc: 0.5668
Refseq NM_014399.3
  TSPAN13 expression fc: −0.1469
Refseq NM_014508.2
  APOBEC3C fc: 0.5827
Refseq NM_014556.2, cultured human skeletal muscle
  EVC expression fc: −0.3857
Refseq NM_014575.2, cultured human skeletal muscle
  SCHIP1 expression fc: 0.06263
Refseq NM_014585.3
  SLC40A1 expression fc: −0.4239
Refseq NM_014603.1
  CDR2L fc: −0.203
Refseq NM_014604.2
  TAX1BP3 fc: −0.341
Refseq NM_014633.3
  CTR9 expression fc: −0.0216
Refseq NM_014655.1
  SLC25A44 expression fc: −0.07654
Refseq NM_014751.4
  MTSS1 fc: −0.4145
Refseq NM_014831.1
  LBA1 fc: 0.4958
Refseq NM_014878.4
  KIAA0020 expression fc: 0.01783
Refseq NM_014945.2
  ABLIM3 fc: 0.01495
Refseq NM_014969.4
  WDR47 expression fc: 0.1401
Refseq NM_015193.3
  ARC expression fc: −0.188
Refseq NM_015213.2
  fc of DENND5A (expression array): 0.07991
Refseq NM_015322.3
  fc of FEM1B (expression array): 1.026
Refseq NM_015368.3
  fc of PANX1 (expression array): 1.233
Refseq NM_015423.2
  fc of AASDHPPT (expression array): −1.246
Refseq NM_015440.3
  MTHFD1L fc: 0.3955
Refseq NM_015463.1
  C2orf32 fc: 0.07813
Refseq NM_015480.1
  PVRL3 expression fc: 0.4473
Refseq NM_015514.1
  NGDN expression fc: 0.4088
Refseq NM_015713.3
  fc of RRM2B (expression array): 0.6161
Refseq NM_015832.3
  MBD2 expression fc: −0.07679
Refseq NM_015884.1
  fc of MBTPS2 (expression array): 1.035
Refseq NM_015908.4
  ARS2 expression fc: −0.2002
Refseq NM_015917.1
  GSTK1 fc: 0.0593
Refseq NM_015934.3
  NOP58 expression fc: 0.2243
Refseq NM_015986.2
  CRLF3 expression fc: −0.1449
Refseq NM_016030.5
  fc of TTC15 (expression array): −0.1193
Refseq NM_016048.1
  ISOC1 expression fc: −0.6187
Refseq NM_016060.2
  MED31 expression fc: 0.3123
Refseq NM_016113.3
  fc of TRPV2 (expression array): 0.3116
Refseq NM_016174.3
  CERCAM fc: −0.1838
Refseq NM_016216.2
  DBR1 expression fc: 0.2247
Refseq NM_016310.2
  POLR3K expression fc: 0.05873
Refseq NM_016323.2, cultured human skeletal muscle
  HERC5 expression fc: 1.329
